We go through 41 sequences from the nanobody polyreactivity screen of Harvey et al. (2022).

This data set in a line: yeast display, Sf9 membrane polyspecificity reagent, FACS + sequencing; frameworks hold sequencing errors. The method in brief: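 Sorting gates, low and high (top ~1%), were placed on anti-HA fluorescence to track expression and on streptavidin fluorescence to track reagent binding. A clone's polyreactivity label is taken from the gate it came out of. The reagent was 10% biotinylated, detergent-solubilized Sf9 membrane, applied for 1 hour at 4 °C to galactose-induced yeast display cells.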
As to “QVQLVESGGGLVQAGGSLRLSCAASGRIFAHYAMGWYRQAPGKERELVADIRQSGGRTYYADSVKGRFTISRDNAKNTVYLKMNSLKPEDTAVYFCATDYGSWGDYSGKYDYWGQGTQVTVSS”, the “polyreactivity (PSR sort gate)” value was “low polyreactivity”. Regarding “QVQLVESGGGLVQAGGSLRLSCAASGRIFAHYAMGWYRQAPGKEREMVAAISRRGGSTYYAESVKGRFTISRDNAKNTVYLQMNRLKPEDTAVYYCNAVTRSSLSWFFGYDYWGQGTQVTVSS”, the “polyreactivity (PSR sort gate)” value is on record as “high polyreactivity”. The value for “QVQLVESGGGLVQAGGSLRLSCAASGRIFALYAMGGYRQAPGKERELVAAISIRAGSTYYADSAKGRFTISRDNAKNTVYLQMNSLKPEDTAVYYCATKGWVSTSYYYRPYGYWGQGTQVTVSS” was “high polyreactivity”; that for “QVQLVESGGGLVQAGGSLRLSCAASGRIFALYAMGWYRQAPGKERELVASINGSSGSTYYADSVKGRFTISRDTAKNTVYLQMNSLKPEDTAVYYCAKKYYGVKFYWGQGTQVTVSS” was “low polyreactivity”; that for “QVQLVESGGGLVQAGGSLRLSCAASGRIFANAMGWYRQAPGKERELVAAISTSGGRTYYADSVKGRFTISRDNAKNTVYLQMNSLKPEDTAVYYCAARPHTPPVTSGYNHWGQGTQVTVSS” was “high polyreactivity”. As to “QVQLVESGGGLVQAGGSLRLSCAASGRIFAPYAMGWYRQAPGKEREVVAGITRGGITNYADSVKGRFTISRDNAKNTVYLQMNSLKPEDTAVYYCATVVNRRGFYQYYYWGQGTQVTVSS”, the “polyreactivity (PSR sort gate)” value is reported as “high polyreactivity”.

With “QVQLVESGGGLVQAGGSLRLSCAASGRIFAQNAMGWYRQAPRNERELVAGISYGGGRTYYADSVKGRFTISRDKAKNTVYLQMNSLKPEDTAVYYCAKAVNSPRKYQLGNGYWGQGTQVTVSS”, the “polyreactivity (PSR sort gate)” value is “high polyreactivity”. In the case of “QVQLVESGGGLVQAGGSLRLSCAASGRIFAQYAMGWYRQAPGKERELVAAISSGGNTYYADSVKGRFTISRDNAKNTVYLQMNSLKPEDTAVYYCAASSRRYLWGFDYWGQGTQVTVSS”, the “polyreactivity (PSR sort gate)” value is “low polyreactivity”.

With “QVQLVESGGGLVQAGGSLRLSCAASGRIFARNAMGWYRPEPGKERELVAGITWSTASTYYADSVKGRFTISLDNAKNTVYLQMNSLKPEDTAVYYCAADSYYYYDYWYVYLYDYWGQGTQVTVSS”, the “polyreactivity (PSR sort gate)” value is listed as “high polyreactivity”. As for “QVQLVESGGGLVQAGGSLRLSCAASGRIFARNAMGWYRQAPGKERELVAAISSSGGTYYADSVKGRFTISRDNAKNTVYLQMNSLKPEDTAVYYCNARVRTQQRWVDYWGQGTQVTVSS”, the “polyreactivity (PSR sort gate)” value is on record as “high polyreactivity”. With “QVQLVESGGGLVQAGGSLRLSCAASGRIFARYAMGWYRQAPGKERELVAAISRGGGSTYYADSVKGRFTISRDNAKNTVYLQMNSLKPEDTAVYYCNRLSKQKQEFDYWGQGTQVTVSS”, the “polyreactivity (PSR sort gate)” value is given as “high polyreactivity”. For “QVQLVESGGGLVQAGGSLRLSCAASGRIFARYTMGWYRQAPGKERDLVAAISRGGGTNYADSVKGRFTISRDNAKNTVYLQMNSLKPEDTAVSYCAADVSLVYPYSYRYYYWGQGTQVTVSS”, the “polyreactivity (PSR sort gate)” value was “low polyreactivity”.

Turning to “QVQLVESGGGLVQAGGSLRLSCAASGRIFASNAMGWYRPAPGKERELVAAITTTGGSTYYADSVKGRFTISRDNAKNTVYLQMNSLKPEDTAVYYCAKRLGYRYPTYDYWGQGTQVTVSS”, the “polyreactivity (PSR sort gate)” value is listed as “high polyreactivity”. With “QVQLVESGGGLVQAGGSLRLSCAASGRIFASYAMGWYRQAPGKERELVASITRRGGSTYYADSVKGRFTISRDNAKNTVYLQMNSLKPPGSTYEGGYWGQGTQVTVSS”, the “polyreactivity (PSR sort gate)” value is reported as “low polyreactivity”.

Take “QVQLVESGGGLVQAGGSLRLSCAASGRIFASYVMGWYSQAPGKERELVAAISRSGVSTYYADSVKGRFTISRDNEKNTVYLQINSLIPEDTAVYYCATTRFPRSFQEFGYWGQGTQVNVSS”: the “polyreactivity (PSR sort gate)” value is listed as “high polyreactivity”.

“QVQLVESGGGLVQAGGSLRLSCAASGRIFATNAMGWYREAPGKERELVATITRSAGRTYYADSVKGRFTISRDNAKNSVYLQMNSLKPEDTAVYYCAASYWDTEPGYREYDYWGQGTQVTVSS”: the “polyreactivity (PSR sort gate)” value is given as “low polyreactivity”. For “QVQLVESGGGLVQAGGSLRLSCAASGRIFATNAMGWYRQAPGKERELVAGIRRSGARTYYADSVKGRFTISRDNAKNTVYLQMYSLKPEDTAVYYCNASLFIEIYSFQYDDHFAEYGYWGQGTQVTVSS”, the “polyreactivity (PSR sort gate)” value is recorded as “high polyreactivity”. As to “QVQLVESGGGLVQAGGSLRLSCAASGRIFATNAMGWYRQAPGKERELVATITRSAGRTYYADSVKGRFTISRDNAKYTVYLQMNSLKPEDTAVYYCAASYWDTEPGYREYDYWGQGSQVTVSS”, the “polyreactivity (PSR sort gate)” value is recorded as “low polyreactivity”. For the sequence “QVQLVESGGGLVQAGGSLRLSCAASGRIFAVNAMGWYRQAPGKERELVASIRWSGGSTYYADSVKGRFTISRDNAKNTVYLQMNSLKPEDTAVYYCAAVFYLWGQGTQVTVSS”, the “polyreactivity (PSR sort gate)” value was “high polyreactivity”. On to “QVQLVESGGGLVQAGGSLRLSCAASGRIFAVNAMGWYRQAPGKERELVATIRGSGTSTYYADSVKGRFTISRDNAKNTVYLQMNSLKPEDTAVYYCAARGRYRQFNYWGQGTQVTVSS”, for which the “polyreactivity (PSR sort gate)” value is reported as “high polyreactivity”.

In the case of “QVQLVESGGGLVQAGGSLRLSCAASGRIFAVNAMGWYRQAPGNERELVAAITRGGSTNYADSVKGRFTISRDNAKNTVYLQMNSLKPEDTAVYYCAARVYTSPPVRSAPTGYYYWGQGTQVTVSS”, the “polyreactivity (PSR sort gate)” value was “high polyreactivity”. Consider “QVQLVESGGGLVQAGGSLRLSCAASGRIFAWNDMGWYRQAPGKERELLPLFWSGGSTYYADSVKGRFTIARDNAKNTGYLQRNSLKPEDTAVYYCNKDSPPITPYDYWGQGTQVTVSS”, for which the “polyreactivity (PSR sort gate)” value is given as “low polyreactivity”. The value for “QVQLVESGGGLVQAGGSLRLSCAASGRIFAWYTMGWYRQAPGKERELVAAISWNGGRTYYADSVKGRFTISRDNAKNTVYLQMNSLKPEDTAVYYCNADWYWRVYWGQGTQVTVSS” was “high polyreactivity”.

Take “QVQLVESGGGLVQAGGSLRLSCAASGRIFAYNAMGWYRQAPGKERELVAAIDSGGDTNYADSVKGRFTISRDNAKNTVYLQMNSLKPEDTAVYYCAARLYVLRWYPYDYWGHGTQVTVSS”: the “polyreactivity (PSR sort gate)” value is recorded as “low polyreactivity”. The value for “QVQLVESGGGLVQAGGSLRLSCAASGRIFAYNAMGWYRQAPGKERELVAAITWSGGITYYADSVKGRFTISRDNAKNTVYLQMNSLKPEDTAVYYCNVYVSAGEEDEYWGQGTQVTVSS” was “low polyreactivity”; that for “QVQLVESGGGLVQAGGSLRLSCAASGRIFAYNAMGWYRQAPGKERELVAAITWSGSTYYADSVKGRFTISRDNAKNTVYLQMNSLKPEDTAVYYCNAQYRGYWNRGYDYWGQGTQVTVSS” was “high polyreactivity”; that for “QVQLVESGGGLVQAGGSLRLSCAASGRIFAYYAKGWYRQAPRKQRELVAAISSGGNTNYADSVKGRFTISRDNAKKTVYLQMNSLKPEDSAVYYCSAYHFSFGWIRVDDWGQGTQVTVSS” was “high polyreactivity”. With “QVQLVESGGGLVQAGGSLRLSCAASGRIFAYYVMGWYRQAPAKERELVASISSGGGTYYADSVKGRFTISRDNAKNTVYLQMNSLKPEDTAVYYCAARWLRYVYPDGHLFWYDYWGQGTQVTVSS”, the “polyreactivity (PSR sort gate)” value is reported as “high polyreactivity”. Consider “QVQLVESGGGLVQAGGSLRLSCAASGRIFAYYVMGWYRQGPGKERELVASISSGGGTYYADSVKGRFTISRDNAKNTVYLQMNSLKPEDTAVYYCAARWRRYVYPDGHLFWYDYWGQGTQVTVSS”, for which the “polyreactivity (PSR sort gate)” value is given as “high polyreactivity”. On to “QVQLVESGGGLVQAGGSLRLSCAASGRIFDANAMGWYRQAPGKERELVAANSRRGGRTYYADSVKGRFTISRDNAKNTVYLQMNSLKPEDTAVYYCARVPTRAEDVAGWTGMDYWGQGTQVTVSS”, for which the “polyreactivity (PSR sort gate)” value was “high polyreactivity”. The value for “QVQLVESGGGLVQAGGSLRLSCAASGRIFDCYAMGWYIQAPGKERELVAAIRASGGRTYYADSVKGRFTISRDNAKNTVYLQMNSLKPEDTAVYYCAADSVKYGGDYWGQGTQVTVSS” was “high polyreactivity”; that for “QVQLVESGGGLVQAGGSLRLSCAASGRIFDDNAMGWYRQAHGKERELVATISSTGGRTYYADSVKGRFTISRDNAKKTVYLQMNSLKPEDTAVYYCAARRLQGGYYYWGQGTQVTVSS” was “high polyreactivity”; that for “QVQLVESGGGLVQAGGSLRLSCAASGRIFDDYDMGWYRQAPGKEREFVAAISTSGGSTYYADSVKGRFTISRDNAKNTVYLQMNSLKPEDTAVYYCATREYRYTGRQSRRYYWGQGTQVTVSS” was “high polyreactivity”. The value for “QVQLVESGGGLVQAGGSLRLSCAASGRIFDDYDMGWYRQAPGKERELVAAISFDGGNTYADSVKGRFTISRDNAKNTVYLQMNSLKPEDTAVYYCARDDTSPGYGDQSSNAAYYYWGQGTQVTVSS” was “low polyreactivity”. The value for “QVQLVESGGGLVQAGGSLRLSCAASGRIFDGNAMGWYRQAPGKERELVATITRGGRTNYADSVKGRFTISRDNAKNTVYLQMNTLKPEDTAVYYCATSYPGYAYNQAWYPYGYWGQGTQVTVSS” was “low polyreactivity”; that for “QVQLVESGGGLVQAGGSLRLSCAASGRIFDGNTMGWYIPAPGKERELVAAISGGGSTDYADSVKGRFTISRDNAKNTVYLQMNSLKPEDTAVYYCAATTGPVPLKGDYWGQGTQVTVSS” was “low polyreactivity”.

Consider “QVQLVESGGGLVQAGGSLRLSCAASGRIFDGYAMGWYRQAPGKEWELVASISDDGGSTYYADSVKGRFTISRDNEQNTVYLQLNSLKPDDTAVYYCAAVYRRRSYSFYYWGHGTQVTVSS”, for which the “polyreactivity (PSR sort gate)” value is reported as “high polyreactivity”. The value for “QVQLVESGGGLVQAGGSLRLSCAASGRIFDGYTMGWYRQAPGKERELVAAITYRSGRTYYADSVKGRFTISRDNAKNTVYLQMNSLKPEDTAVYYCNKVKRSFIVNTDDYCGQGTQVTVSS” was “high polyreactivity”.

On to “QVQLVESGGGLVQAGGSLRLSCAASGRIFDHNAMGWYRQAPGKERELVAAITWSGGRTYYADSVKGRFTISRDNAKNTVYLQMNSLKPEDTAVYYCNAPVSRRGGNYWGLGTQVTVSS”, for which the “polyreactivity (PSR sort gate)” value is reported as “high polyreactivity”. As for “QVQLVESGGGLVQAGGSLRLSCAASGRIFDIYAMGWYRQAPGKERELVASISWSGDSTYYADSVKGRFTISRDNAKNTVYLEMNSLKPEDTAVYYCAAEGEDTEGYDYDYWGQGTQVTVSS”, the “polyreactivity (PSR sort gate)” value is recorded as “low polyreactivity”. As for “QVQLVESGGGLVQAGGSLRLSCAASGRIFDIYDMGWYIQAPGKERELVAAITSGGNTYYADSVKWRFTISRDNAKNTVYLQMNSLKPEDTAVYYCNAARETRPRDYYWGQGTQVTVSS”, the “polyreactivity (PSR sort gate)” value is on record as “low polyreactivity”.
